Measured values taken from patent publication US20220135656A1.

What was measured:
oat proteins (oat) [1] = experiment: indirect ELISA on coated Oat, duplicate 2
PWG-gliadin (wheat) = experiment: SPR, Biacore T200; Glutenin amine-coupled to the chip, antibody as analyte 20-320 nM; 1:1 binding fit; Chi2 1.1 RU2, U-value 5
[2] = molecular target: 33-mer gluten specific peptide (wheat); experiment: indirect ELISA on coated 33-Mer, duplicate 2
[3] = molecular target: barley proteins (barley prolamins) (barley); experiment: indirect ELISA on coated Barley, duplicate 2
[4] = molecular target: rye proteins (rye prolamins) (rye); experiment: indirect ELISA on coated Rye, duplicate 1
[5] = molecular target: wheat proteins (wheat prolamins) (wheat); experiment: indirect ELISA on coated Wheat, duplicate 2
oat proteins (oat) [6] = experiment: indirect ELISA on coated Oat, duplicate 1
[7] = molecular target: 33-mer gluten specific peptide (wheat); experiment: indirect ELISA on coated 33-Mer, duplicate 1
[8] = molecular target: wheat proteins (wheat prolamins) (wheat); experiment: indirect ELISA on coated Wheat, duplicate 1
[9] = molecular target: rye proteins (rye prolamins) (rye); experiment: indirect ELISA on coated Rye, duplicate 2
[10] = molecular target: barley proteins (barley prolamins) (barley); experiment: indirect ELISA on coated Barley, duplicate 1

Chain of 33-mer gluten specific peptide (wheat) (peptide, as listed by the source): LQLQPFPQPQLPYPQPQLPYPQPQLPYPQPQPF

## R5 monoclonal antibody
Oat proteins (oat) [1]
  ELISA absorbance at 0 ng/ml antibody (blank): 0.044
  ELISA absorbance at 0.8 ng/ml antibody: 0.055
  ELISA absorbance at 4 ng/ml antibody: 0.043
  ELISA absorbance at 20 ng/ml antibody: 0.048
PWG-gliadin (wheat)
  Kd: 203 nM
  koff: 0.0539 s⁻¹
  kon: 266000 M⁻¹ s⁻¹
[2]
  ELISA absorbance at 0 ng/ml antibody (blank): 0.04
  ELISA absorbance at 0.8 ng/ml antibody: 0.04
  ELISA absorbance at 4 ng/ml antibody: 0.052
  ELISA absorbance at 20 ng/ml antibody: 0.118
[3]
  ELISA absorbance at 0 ng/ml antibody (blank): 0.042
  ELISA absorbance at 0.8 ng/ml antibody: 0.171
  ELISA absorbance at 4 ng/ml antibody: 0.659
  ELISA absorbance at 20 ng/ml antibody: 1.61
[4]
  ELISA absorbance at 0 ng/ml antibody (blank): 0.039
  ELISA absorbance at 0.8 ng/ml antibody: 0.165
  ELISA absorbance at 4 ng/ml antibody: 0.651
  ELISA absorbance at 20 ng/ml antibody: 1.56
[5]
  ELISA absorbance at 0 ng/ml antibody (blank): 0.043
  ELISA absorbance at 0.8 ng/ml antibody: 0.133
  ELISA absorbance at 4 ng/ml antibody: 0.534
  ELISA absorbance at 20 ng/ml antibody: 1.52
Oat proteins (oat) [6]
  ELISA absorbance at 0 ng/ml antibody (blank): 0.043
  ELISA absorbance at 0.8 ng/ml antibody: 0.041
  ELISA absorbance at 4 ng/ml antibody: 0.042
  ELISA absorbance at 20 ng/ml antibody: 0.043
[7]
  ELISA absorbance at 0 ng/ml antibody (blank): 0.04
  ELISA absorbance at 0.8 ng/ml antibody: 0.039
  ELISA absorbance at 4 ng/ml antibody: 0.048
  ELISA absorbance at 20 ng/ml antibody: 0.067
[8]
  ELISA absorbance at 0 ng/ml antibody (blank): 0.039
  ELISA absorbance at 0.8 ng/ml antibody: 0.133
  ELISA absorbance at 4 ng/ml antibody: 0.534
  ELISA absorbance at 20 ng/ml antibody: 1.5
[9]
  ELISA absorbance at 0 ng/ml antibody (blank): 0.042
  ELISA absorbance at 0.8 ng/ml antibody: 0.174
  ELISA absorbance at 4 ng/ml antibody: 0.671
  ELISA absorbance at 20 ng/ml antibody: 1.61
[10]
  ELISA absorbance at 0 ng/ml antibody (blank): 0.041
  ELISA absorbance at 0.8 ng/ml antibody: 0.165
  ELISA absorbance at 4 ng/ml antibody: 0.63
  ELISA absorbance at 20 ng/ml antibody: 1.62
